Source: doi:10.1101/2024.07.29.605598 (bioRxiv, 2024)
Values joined by “and” are separate entries in the source; they are usually repeats but may differ in a detail not shown here. Identical values can stand only once.

B1: Drosophila melanogaster Cno RA1 domain (amino acids 1-137) (domain or fragment, UniProt Q24279 1-137, looked up)
chain: MSHDKKMLDREAVRSVIQQWNANRLDLFALSEPDENLLFHGVMRFYFQDAGQKVATKCIRVASDATVTDVIDTLIEKFRPDMRMLSVPNYALYEVHANGEERRLNADEKPLLVQLNWHIDDREGRFLLKNIDQKTTP
B2: Drosophila melanogaster Cno RA2 domain (amino acids 222-350) (domain or fragment, UniProt Q24279 222-350, looked up)
chain: TRSISNPEAVMRRRRQQKLEKKLQQFRSRDGGPDTGGTLKIYGESLCQDVPYKTLLLSIRDCAQAVVREMLTKYGLEKADPLHYCLVQVNSDGTEYILDDDECPLSILMNHPTSRGSIMFHVRRRPADS
B3: Drosophila melanogaster GTPase Rap1 G12V (amino acids 1-180), GMPPNP-loaded (enzyme, UniProt P08645 1-180, looked up)
chain: MREYKIVVLGSVGVGKSALTVQFVQCIFVEKYDPTIEDSYRKQVEVDGQQCMLEILDTAGTEQFTAMRDLYMKNGQGFVLVYSITAQSTFNDLQDLREQILRVKDTDDVPMVLVGNKCDLEEERVVGKELGKNLATQFNCAFMETSAKAKVNVNDIFYDLVRQINKKSPEKKQKKPKKSL

What was measured:
[1] = target: B3; test: ITC
[2] = target: B1; test: SEC-MALS
[3] = target: B1; test: ITC
[4] = target: B2; test: ITC

Binder | Kd [1] | stoichiometry N [2] | dH [3] | stoichiometry N [3] | dH [4] | stoichiometry N [4]
B1 | 4.5 µM and 5.9 µM | – | – | – | – | –
B2 | 8.8 µM and 7.9 µM and 8.7 µM | – | – | – | – | –
B3 | – | 1 | -4.38 kcal/mol and -4.79 kcal/mol | 0.717 | -3.07 kcal/mol and -2.18 kcal/mol and -2.72 kcal/mol | 0.755 and 0.73 and 0.63
